{
  "source": "patent US6689582B1",
  "about": "“Polynucleotide molecules encoding proteins having proteinase inhibitor activity” (Bayer Pharmaceuticals Corporation, priority 1999, dated 2004)",
  "origin": "cited, not measured here",
  "key": {"plasma kallikrein": {"target": "plasma kallikrein (Homo sapiens, UniProt P03952)", "sequence (P03952 20-638, species assumed)": "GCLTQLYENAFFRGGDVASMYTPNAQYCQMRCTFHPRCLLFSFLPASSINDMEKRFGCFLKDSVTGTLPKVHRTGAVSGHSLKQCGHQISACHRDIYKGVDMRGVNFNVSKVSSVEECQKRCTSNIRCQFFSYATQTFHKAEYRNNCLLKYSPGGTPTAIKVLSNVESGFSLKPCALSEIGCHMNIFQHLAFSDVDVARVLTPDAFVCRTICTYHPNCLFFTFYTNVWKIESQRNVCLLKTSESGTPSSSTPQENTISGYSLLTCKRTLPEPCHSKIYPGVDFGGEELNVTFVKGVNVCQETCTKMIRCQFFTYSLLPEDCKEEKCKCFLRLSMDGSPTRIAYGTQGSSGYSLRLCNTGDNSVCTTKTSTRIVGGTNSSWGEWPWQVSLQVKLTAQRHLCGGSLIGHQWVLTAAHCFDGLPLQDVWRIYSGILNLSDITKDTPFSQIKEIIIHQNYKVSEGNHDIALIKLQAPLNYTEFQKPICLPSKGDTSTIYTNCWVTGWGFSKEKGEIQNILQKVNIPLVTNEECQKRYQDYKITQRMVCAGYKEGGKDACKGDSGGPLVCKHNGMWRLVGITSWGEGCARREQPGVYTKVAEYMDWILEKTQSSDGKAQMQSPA"}, "cathepsin G": {"target": "T1, cathepsin G (Homo sapiens, UniProt P08311)", "T1 sequence (P08311 21-255)": "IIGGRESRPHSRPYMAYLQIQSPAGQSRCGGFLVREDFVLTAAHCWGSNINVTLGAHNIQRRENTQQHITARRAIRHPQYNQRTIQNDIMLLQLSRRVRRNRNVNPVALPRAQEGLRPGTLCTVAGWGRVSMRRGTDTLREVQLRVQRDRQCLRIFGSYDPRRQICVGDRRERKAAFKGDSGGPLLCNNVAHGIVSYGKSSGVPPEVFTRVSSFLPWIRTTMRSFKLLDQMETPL"}, "leukocyte elastase": {"target": "T2, leukocyte elastase (Homo sapiens, UniProt P08246)", "T2 sequence (P08246 30-267)": "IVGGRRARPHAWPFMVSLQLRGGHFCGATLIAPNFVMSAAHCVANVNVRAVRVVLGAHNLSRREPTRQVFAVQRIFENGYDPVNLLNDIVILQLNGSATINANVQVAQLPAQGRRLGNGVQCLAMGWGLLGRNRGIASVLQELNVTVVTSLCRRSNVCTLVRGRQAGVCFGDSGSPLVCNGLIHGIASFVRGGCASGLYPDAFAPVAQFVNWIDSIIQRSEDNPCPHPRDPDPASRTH"}, "thrombin": {"target": "thrombin (Homo sapiens, UniProt P00734)"}, "proteinase 3": {"target": "T3, proteinase 3 (Homo sapiens, UniProt P24158)", "T3 sequence (P24158 28-256)": "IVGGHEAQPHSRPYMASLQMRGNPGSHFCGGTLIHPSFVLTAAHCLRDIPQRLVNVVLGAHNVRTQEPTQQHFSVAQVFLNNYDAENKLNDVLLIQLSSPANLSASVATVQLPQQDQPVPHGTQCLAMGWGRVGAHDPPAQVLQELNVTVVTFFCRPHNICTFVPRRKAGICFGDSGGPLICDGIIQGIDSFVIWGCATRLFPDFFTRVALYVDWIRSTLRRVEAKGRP"}},
  "note": "Like-named read-outs stand apart in the source and are kept apart here. Ends that are not written are not given here.",
  "data": [
    {"molecule": "APP KD variant (T11D, P13H, M17A, I18H, S19P and F34Y): phage display derived plasma kallikrein inhibitor differing from APP KD at 6 key residues (VREVCSEQAEDGHCRAAHPRWYFDVTEGKCAPFYYGGCGGNRNNFDTEEYCMAVC; ends and bridges not checked; cysteine pairing not given here)", "values": [
      {"measurement": "Ki", "setting": "plasma kallikrein", "value": "~0.015", "unit": "nM"},
      {"measurement": "increase in binding affinity to plasma kallikrein compared to wild-type APP KD", "setting": "plasma kallikrein", "value": "more than 10,000 fold"}
    ]},
    {"molecule": "Alpha-1-proteinase: serpin family serine proteinase inhibitor, major serum inhibitor of elastase and cathepsin G", "values": [
      {"measurement": "inhibition of cathepsin G (in words)", "setting": "cathepsin G", "value": "inhibit"},
      {"measurement": "inhibition of cathepsin G (in words)", "setting": "cathepsin G; listed as Alpha 1-proteinase inhibitor", "value": "potent inhibitor"}
    ]},
    {"molecule": "alpha 1-proteinase inhibitor [Arg358]: P1 variant of alpha 1-proteinase inhibitor", "values": [
      {"measurement": "inhibition of leukocyte elastase (in words)", "setting": "leukocyte elastase", "value": "not"},
      {"measurement": "inhibition of thrombin (in words)", "setting": "thrombin", "value": "potent inhibitor"}
    ]},
    {"molecule": "elafin: member of the mucous proteinase inhibitor family (AQEPVKGPVSTKPGSCPIILIRCAMLNPPNRCLKDTDCPGIKKCCEGSCGMACFVPQ; ends and bridges not checked; cysteine pairing not given here; UniProt P19957 61-117, looked up)", "values": [
      {"measurement": "inhibition of proteinase 3 (in words)", "setting": "proteinase 3", "value": "not"}
    ]},
    {"molecule": "placental bikunin: human Kunitz family inhibitor, potent inhibitor of plasmin (protein, UniProt O43291 28-252, looked up) Kunitz-type protease …: ADRERSIHDFCLVSKVVGRCRASMPRWWYNVTDGSCQLFVYGGCDGNSNNYLTKEECLKKCATVTENATGDLATSRNAADSSVPSAPRRQDSEDHSSDMFNYEEYCTANAVTGPCRASFPRWYFDVERNSCNNFIYGGCRGNKNSYRSEEACMLRCFRQQENPPLPLGSKVVVLAGLFVMVLILFLGASMVYLIRVARRNQERALRTVWSSGDDKEQLVKNTYVL", "values": [
      {"measurement": "inhibition of leukocyte elastase (in words)", "setting": "leukocyte elastase", "value": "not"}
    ]},
    {"molecule": "Alpha-1-antichymotrypsin: serpin family proteinase inhibitor, physiological cathepsin G inhibitor (protein, UniProt P01011 24-423, looked up) Alpha-1-antichymotrypsin: HPNSPLDEENLTQENQDRGTHVDLGLASANVDFAFSLYKQLVLKAPDKNVIFSPLSISTALAFLSLGAHNTTLTEILKGLKFNLTETSEAEIHQSFQHLLRTLNQSSDELQLSMGNAMFVKEQLSLLDRFTEDAKRLYGSEAFATDFQDSAAAKKLINDYVKNGTRGKITDLIKDLDSQTMMVLVNYIFFKAKWEMPFDPQDTHQSRFYLSKKKWVMVPMMSLHHLTIPYFRDEELSCTVVELKYTGNASALFILPDQDKMEEVEAMLLPETLKRWRDSLEFREIGELYLPKFSISRDYNLNDILLQLGIEEAFTSKADLSGITGARNLAVSQVVHKAVLDVFEEGTEASAATAVKITLLSALVETRTIVRFNRPFLMIIVPTDTQNIFFMSKVTNPKQA", "values": [
      {"measurement": "inhibition of proteinase 3 (in words)", "setting": "proteinase 3", "value": "not"}
    ]},
    {"molecule": "SLPI: member of the mucous proteinase inhibitor family (protein, UniProt P03973 26-132, looked up) Antileukoproteinase: SGKSFKAGVCPPKKSAQCLRYKKPECQSDWQCPGKKRCCPDTCGIKCLDPVDTPNPTRRKPGKCPVTYGQCLMLNPPNFCEMDGQCKRDLKCCMGMCGKSCVSPVKA", "values": [
      {"measurement": "inhibition of proteinase 3 (in words)", "setting": "proteinase 3", "value": "not"}
    ]}
  ]
}
